Measured values as given in PMC8390553, “The DNA-binding protein CST associates with the cohesin complex and promotes chromosome cohesion” (The Journal of Biological Chemistry, 2021).

Target: T1, STN1, endogenous (HeLa) (human (endogenous in HeLa), UniProt Q9H668 1-368)
T1 construct: STN1 (OBFC1), subunit of the CST complex, endogenous; also called OBFC1; source: endogenous, in fixed HeLa 1.2.11 cells
T1 sequence (looked up): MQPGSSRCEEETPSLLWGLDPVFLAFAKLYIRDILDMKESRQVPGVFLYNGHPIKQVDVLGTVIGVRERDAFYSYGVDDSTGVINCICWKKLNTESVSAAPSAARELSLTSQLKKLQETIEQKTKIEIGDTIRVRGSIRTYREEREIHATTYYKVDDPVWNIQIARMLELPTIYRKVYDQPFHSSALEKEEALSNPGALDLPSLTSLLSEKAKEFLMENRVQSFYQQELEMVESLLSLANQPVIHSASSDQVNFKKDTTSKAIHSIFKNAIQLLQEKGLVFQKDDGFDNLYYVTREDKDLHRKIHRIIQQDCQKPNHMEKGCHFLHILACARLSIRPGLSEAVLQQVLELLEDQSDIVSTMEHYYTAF
Assay: proximity ligation; fixed HeLa 1.2.11 cells, Duolink PLA kit, antibodies to the endogenous proteins (mouse α-STN1 with rabbit α-SMC3, α-PolA1 or α-MCM7); untreated cells, and for STN1 with SMC3 also after HU (2 mM, 2 h), APH (1 μM, 2 h) or CPT (1 μM, 1 h)
Settings: partners not purified

B1: SMC3, endogenous (HeLa) (natural protein, human (endogenous in HeLa), UniProt Q9UQE7 1-1217, looked up)
chain: MYIKQVIIQGFRSYRDQTIVDPFSSKHNVIVGRNGSGKSNFFYAIQFVLSDEFSHLRPEQRLALLHEGTGPRVISAFVEIIFDNSDNRLPIDKEEVSLRRVIGAKKDQYFLDKKMVTKNDVMNLLESAGFSRSNPYYIVKQGKINQMATAPDSQRLKLLREVAGTRVYDERKEESISLMKETEGKREKINELLKYIEERLHTLEEEKEELAQYQKWDKMRRALEYTIYNQELNETRAKLDELSAKRETSGEKSRQLRDAQQDARDKMEDIERQVRELKTKISAMKEEKEQLSAERQEQIKQRTKLELKAKDLQDELAGNSEQRKRLLKERQKLLEKIEEKQKELAETEPKFNSVKEKEERGIARLAQATQERTDLYAKQGRGSQFTSKEERDKWIKKELKSLDQAINDKKRQIAAIHKDLEDTEANKEKNLEQYNKLDQDLNEVKARVEELDRKYYEVKNKKDELQSERNYLWREENAEQQALAAKREDLEKKQQLLRAATGKAILNGIDSINKVLDHFRRKGINQHVQNGYHGIVMNNFECEPAFYTCVEVTAGNRLFYHIVDSDEVSTKILMEFNKMNLPGEVTFLPLNKLDVRDTAYPETNDAIPMISKLRYNPRFDKAFKHVFGKTLICRSMEVSTQLARAFTMDCITLEGDQVSHRGALTGGYYDTRKSRLELQKDVRKAEEELGELEAKLNENLRRNIERINNEIDQLMNQMQQIETQQRKFKASRDSILSEMKMLKEKRQQSEKTFMPKQRSLQSLEASLHAMESTRESLKAELGTDLLSQLSLEDQKRVDALNDEIRQLQQENRQLLNERIKLEGIITRVETYLNENLRKRLDQVEQELNELRETEGGTVLTATTSELEAINKRVKDTMARSEDLDNSIDKTEAGIKELQKSMERWKNMEKEHMDAINHDTKELEKMTNRQGMLLKKKEECMKKIRELGSLPQEAFEKYQTLSLKQLFRKLEQCNTELKKYSHVNKKALDQFVNFSEQKEKLIKRQEELDRGYKSIMELMNVLELRKYEAIQLTFKQVSKNFSEVFQKLVPGGKATLVMKKGDVEGSQSQDEGEGSGESERGSGSQSSVPSVDQFTGVGIRVSFTGKQGEMREMQQLSGGQKSLVALALIFAIQKCDPAPFYLFDEIDQALDAQHRKAVSDMIMELAVHAQFITTTFRPELLESADKFYGVKFRNKVSHIDVITAEMAKDFVEDDTTHG
notes: SMC3, core subunit of the cohesin complex, endogenous; also called cohesin subunit; source: endogenous, in fixed HeLa 1.2.11 cells
- PLA foci per cell (average): ~6 foci per cell
- fold increase in PLA foci after HU, APH or CPT against untreated cells: ~2 fold

B2: PolA1, subunit of DNA polymerase α-primase, endogenous (HeLa) (natural protein, human (endogenous in HeLa), UniProt P09884 1-1462, looked up)
chain: MAPVHGDDSLSDSGSFVSSRARREKKSKKGRQEALERLKKAKAGEKYKYEVEDFTGVYEEVDEEQYSKLVQARQDDDWIVDDDGIGYVEDGREIFDDDLEDDALDADEKGKDGKARNKDKRNVKKLAVTKPNNIKSMFIACAGKKTADKAVDLSKDGLLGDILQDLNTETPQITPPPVMILKKKRSIGASPNPFSVHTATAVPSGKIASPVSRKEPPLTPVPLKRAEFAGDDVQVESTEEEQESGAMEFEDGDFDEPMEVEEVDLEPMAAKAWDKESEPAEEVKQEADSGKGTVSYLGSFLPDVSCWDIDQEGDSSFSVQEVQVDSSHLPLVKGADEEQVFHFYWLDAYEDQYNQPGVVFLFGKVWIESAETHVSCCVMVKNIERTLYFLPREMKIDLNTGKETGTPISMKDVYEEFDEKIATKYKIMKFKSKPVEKNYAFEIPDVPEKSEYLEVKYSAEMPQLPQDLKGETFSHVFGTNTSSLELFLMNRKIKGPCWLEVKSPQLLNQPVSWCKVEAMALKPDLVNVIKDVSPPPLVVMAFSMKTMQNAKNHQNEIIAMAALVHHSFALDKAAPKPPFQSHFCVVSKPKDCIFPYAFKEVIEKKNVKVEVAATERTLLGFFLAKVHKIDPDIIVGHNIYGFELEVLLQRINVCKAPHWSKIGRLKRSNMPKLGGRSGFGERNATCGRMICDVEISAKELIRCKSYHLSELVQQILKTERVVIPMENIQNMYSESSQLLYLLEHTWKDAKFILQIMCELNVLPLALQITNIAGNIMSRTLMGGRSERNEFLLLHAFYENNYIVPDKQIFRKPQQKLGDEDEEIDGDTNKYKKGRKKAAYAGGLVLDPKVGFYDKFILLLDFNSLYPSIIQEFNICFTTVQRVASEAQKVTEDGEQEQIPELPDPSLEMGILPREIRKLVERRKQVKQLMKQQDLNPDLILQYDIRQKALKLTANSMYGCLGFSYSRFYAKPLAALVTYKGREILMHTKEMVQKMNLEVIYGDTDSIMINTNSTNLEEVFKLGNKVKSEVNKLYKLLEIDIDGVFKSLLLLKKKKYAALVVEPTSDGNYVTKQELKGLDIVRRDWCDLAKDTGNFVIGQILSDQSRDTIVENIQKRLIEIGENVLNGSVPVSQFEINKALTKDPQDYPDKKSLPHVHVALWINSQGGRKVKAGDTVSYVICQDGSNLTASQRAYAPEQLQKQDNLTIDTQYYLAQQIHPVVARICEPIDGIDAVLIATWLGLDPTQFRVHHYHKDEENDALLGGPAQLTDEEKYRDCERFKCPCPTCGTENIYDNVFDGSGTDMEPSLYRCSNIDCKASPLTFTVQLSNKLIMDIRRFIKKYYDGWLICEEPTCRNRTRHLPLQFSRTGPLCPACMKATLQPEYSDKSLYTQLCFYRYIFDAECALEKLTTDHEKDKLKKQFFTPKVLQDYRKLKNTAEQFLSRSGYSEVNLSKLFAGCAVKS
notes: PolA1, subunit of DNA polymerase α-primase, endogenous; the subunit to which the PLA antibody was directed; The results name the partner as the complex DNA polymerase α-primase; the antibody of the PLA was against PolA1; source: endogenous, in fixed HeLa 1.2.11 cells
- PLA foci per cell (average): 2.5 foci per cell
